Data as given in patent US20250019450A1 (DIAGONAL THERAPEUTICS, published 2025).

Biological target: human IL-12 receptor (IL-12Rβ1 and IL-12Rβ2) on HEK-Blue IL-12 cells (human, UniProt P42701 24-662; Q99665 24-862)
Assay: cell-based or functional assay

Chain of human IL-12 receptor (IL-12Rβ1 and IL-12Rβ2) on HEK-Blue IL-12 cells (Q99665 24-862, chain 2 of 2, other chains not shown): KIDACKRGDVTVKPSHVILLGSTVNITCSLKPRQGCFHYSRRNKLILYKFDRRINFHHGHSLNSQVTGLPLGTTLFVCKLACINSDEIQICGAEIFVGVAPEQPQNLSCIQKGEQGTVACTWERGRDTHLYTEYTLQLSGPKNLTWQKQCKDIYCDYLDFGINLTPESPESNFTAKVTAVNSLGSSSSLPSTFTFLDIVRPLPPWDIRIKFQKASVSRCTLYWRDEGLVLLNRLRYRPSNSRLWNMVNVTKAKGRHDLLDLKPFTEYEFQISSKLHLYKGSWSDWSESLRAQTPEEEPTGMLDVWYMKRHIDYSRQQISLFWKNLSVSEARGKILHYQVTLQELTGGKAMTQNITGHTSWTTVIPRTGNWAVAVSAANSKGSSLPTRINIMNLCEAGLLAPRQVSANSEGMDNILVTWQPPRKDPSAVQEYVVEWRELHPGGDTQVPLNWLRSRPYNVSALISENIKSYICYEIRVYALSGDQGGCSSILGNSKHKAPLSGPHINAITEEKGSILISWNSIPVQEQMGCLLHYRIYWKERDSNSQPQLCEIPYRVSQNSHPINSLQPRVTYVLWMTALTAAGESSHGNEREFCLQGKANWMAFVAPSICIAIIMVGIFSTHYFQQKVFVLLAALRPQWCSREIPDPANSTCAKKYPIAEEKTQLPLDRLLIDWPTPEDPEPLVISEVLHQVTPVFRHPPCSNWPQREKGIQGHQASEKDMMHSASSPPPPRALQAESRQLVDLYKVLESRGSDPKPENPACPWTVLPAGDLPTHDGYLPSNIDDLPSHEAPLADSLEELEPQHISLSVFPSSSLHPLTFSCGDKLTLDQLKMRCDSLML

B1: DGL478 (bispecific antibody, V domains shown)
V domain 1: QVQLVESGGGLVQAGGSLRLSCAAPGRYAVGWFRQAPGKEYEFVAAITVSGGSKYYEDSVKGRFAISRDNAKNTVYLQMNSLKAEDTAVYYCAARTPKFGSGWYNRRGEYDYWGQGTQVTVEP
V domain 2: QVQLVESGGGLVQAGGSLRLSCAASGRIFSAYRMGWFRQAPGKEREFVAGITWRGQTTYYAASVKGRFTISKDNAKKTVYLQMNSLKPEETAVYYCAVETNGLGRWDRPSEYDYWGQGTQVTVEP
**Q.** With B1 as the binder, how does the EC50 read?
**A.** Its EC50 is 4e-09 M (implied).

**Q.** What about the “Max Absorbance” value of the same binder?
**A.** The value was 0.4.

B2: DGL503 (bispecific antibody, V domains shown)
V domain 1: EVQLVESGGGLVQAGGSLRLSCAASGLTFRNYAMAWFRQAPGKEREFVAGITWGGGLTHYVDSVKGRFTISRDNGKNTVYLQMNSLKSEDTAVYYCAGKTQGSTWYHLTPDGYDYWGQGTQVTVEP
V domain 2: QVQLVESGGGLVQAGGSLRLSCAASGRIFSAYRMGWFRQAPGKEREFVAGITWRGQTTYYAASVKGRFTISKDNAKKTVYLQMNSLKPEETAVYYCAVETNGLGRWDRPSEYDYWGQGTQVTVEP
**Q.** How did the “Max Absorbance” value turn out when B2 was run?
**A.** The value was 0.35.

B3: DGL552 (bispecific antibody, V domains shown)
V domain 1: QVQLVESGGGLVQAGGSLRLSCAASGRTFGTYAMGWFRQAPGKERDFVARISNSGAFTHYADSVKGRFTISRDNAKNTVYLHMNSLENGDTAAYYCVATRGTNSAYYTRSTMYEYWGQGTQVTVEP
V domain 2: QVQLVESGGGLVQAGGSLRLSCAASGRIFSAYRMGWFRQAPGKEREFVAGITWRGQTTYYAASVKGRFTISKDNAKKTVYLQMNSLKPEETAVYYCAVETNGLGRWDRPSEYDYWGQGTQVTVEP
**Q.** B3 was tested. Which EC50 did it give?
**A.** Its EC50 is over 0.1 µM.

**Q.** What about the “Max Absorbance” value of the same binder?
**A.** Its value is 0.4.

B4: DGL533 (bispecific antibody, V domains shown)
V domain 1: EVQLVESGGGLVQPGGSLTLSCTASGFRFSDRSMGWYRQAPGKQRELVAAITVGGSTNYADSVKGRFTISRDNAKNTVYLQMNSLKPEDTALYYCNRRYPPDDYWGQGTQVTVEP
V domain 2: QVQLVESGGGLVQAGGSLRLSCAASGRTFSSYAMGWFRQAPGKEREFVSAISWSGLSTYYVESVQGRFTISRDNAKNTVYLQMNSLKPEDTAVYYCAASRIYTNYVARSYEYDDWGQGTQVTVEP
**Q.** Which EC50 does the source give for B4 here?
**A.** Its EC50 is over 0.1 µM.

**Q.** What about the “Max Absorbance” value of the same binder?
**A.** Its value is 0.42.

B5: DGL541 (bispecific antibody, V domains shown)
V domain 1: QVQLVESGGGLVQAGGSLRLSCAASGRTFRTYAMGWFRQAPGKDREVVGIAAWKVASTYYVDYGDSVRGRFTISRDDAKSTVYLQMNNLMPEDTAVYYCAAGAFRTDWRSYAYWGQGTQVTVEP
V domain 2: QVQLVESGGGLVQAGGSLRLSCAASGRTFSSYAMGWFRQAPGKEREFVSAISWSGLSTYYVESVQGRFTISRDNAKNTVYLQMNSLKPEDTAVYYCAASRIYTNYVARSYEYDDWGQGTQVTVEP
**Q.** Which “Max Absorbance” value does the source give for B5 here?
**A.** Its value is 0.37.

B6: DGL579 (bispecific antibody, V domains shown)
V domain 1: QVQLVESGGGLVQAGGSLRLSCAASRSISSFNEMAWYRQAPGEQRELVATIVSTVGFTNYADSVKGRFTISRDNAKNTVYLQMNSLKAEDTAVYYCNARRISTDYWGQGTQVTVEP
V domain 2: QVQLVESGGGLVQAGGSLRLSCAASGRTFSSYAMGWFRQAPGKEREFVSAISWSGLSTYYVESVQGRFTISRDNAKNTVYLQMNSLKPEDTAVYYCAASRIYTNYVARSYEYDDWGQGTQVTVEP
**Q.** How did the “Max Absorbance” value turn out when B6 was run?
**A.** Its value is 0.36.

B7: DGL504 (bispecific antibody, V domains shown)
V domain 1: EVQLVESGGGLVQAGGSLRLSCAASGLTFRNYAMAWFRQAPGKEREFVAGITWGGGLTHYVDSVKGRFTISRDNGKNTVYLQMNSLKSEDTAVYYCAGKTQGSTWYHLTPDGYDYWGQGTQVTVEP
V domain 2: QVQLVESGGGLVQAGGSLRLSCAASGRTFSSYAMGWFRQAPGKEREFVSAISWSGLSTYYVESVQGRFTISRDNAKNTVYLQMNSLKPEDTAVYYCAASRIYTNYVARSYEYDDWGQGTQVTVEP
**Q.** How did the EC50 turn out when B7 was run?
**A.** The EC50 was over 0.1 µM.

**Q.** And the “Max Absorbance” value?
**A.** The value was 0.41.

B8: DGL585 (bispecific antibody, V domains shown)
V domain 1: QVQLVESGGGLVQAGGSLRLSCAASGRTFSSYVMGWFRQAPGQEREFVAAIMRNGIMTYYADSVKGRFTISRDNAKNTVYLQMNTLKPDDTAVYYCAAASRVGVSISQSSSYTSWGQGTQVTVEP
V domain 2: QVQLVESGGGLVRPGGSLRLSCAASGFTFSSNGMHWFRQAPGKGLEWVSSIGSGGTSIYYADSVKGRFTISRDNAKNTLYLQMNSLKSDDTAVYYCSKEVTGATRGQGTQVTVEP
**Q.** Which EC50 does the source give for B8 here?
**A.** Its EC50 is 3.2e-09 M (implied).

**Q.** What about the “Max Absorbance” value of the same binder?
**A.** The value was 0.37.

B9: DGL448 (bispecific antibody, human IgG1, lambda)
heavy 1: not shown
heavy 2: EVQLVESGGGLVQPGGSLRLSCAASGFTFSTYDMHWVRQATGKGLEWVSLIDTAGDTYYPDSVKGRFTISRENAKNSLYLQMNSLRAGDTAVYYCAREGWGYFDYWGQGALVTVSSASTKGPSVFPLAPSSKSTSGGTAALGCLVKDYFPEPVTVSWNSGALTSGVHTFPAVLQSSGLYSLSSVVTVPSSSLGTQTYICNVNHKPSNTKVDKKVEPKSCDKTHTCPPCPAPEAAGAPSVFLFPPKPKDTLMISRTPEVTCVVVDVSHEDPEVKFNWYVDGVEVHNAKTKPREEQYNSTYRVVSVLTVLHQDWLNGKEYKCKVSNKALPAPIEKTISKAKGQPREPQVCTLPPSRDELTKNQVSLSCAVKGFYPSDIAVEWESNGQPENNYKTTPPVLDSDGSFFLVSKLTVDKSRWQQGNVFSCSVMHEALHNRFTQKSLSLSPG
light: QSALTQPPSVSGSPGQSVTISCTGTSSDVGSYNRVSWYQQPPGTAPKLMIYEVSNRPSGVPDRFSGSKSGNTASLTISGLQAEDEADYYCSLYTGSSTVVFGGGTKVTVLGQPKAAPSVTLFPPSSEELQANKATLVCLISDFYPGAVTVAWKADSSPVKAGVETTTPSKQSNNKYAASSYLSLTPEQWKSHRSYSCQVTHEGSTVEKTVAPTECS
**Q.** For B9, which EC50 is on record?
**A.** The EC50 was 1e-09 M (implied).

**Q.** And the “Max Absorbance” value?
**A.** Its value is 0.39.

B10: DGL445 (bispecific antibody, human IgG1, lambda)
heavy 1: not shown
heavy 2: QVQLVQPGAEVKKPGASVKVSCKASGYTFTGYYMHWVRQAPGQGLEWMGWINPKSGGTNYAQKFQGRVTMTRDTSISTAYMELTRLRSDDTAVYYCARDQGYGDYVLKHWGQGTLVTVSSASTKGPSVFPLAPSSKSTSGGTAALGCLVKDYFPEPVTVSWNSGALTSGVHTFPAVLQSSGLYSLSSVVTVPSSSLGTQTYICNVNHKPSNTKVDKKVEPKSCDKTHTCPPCPAPEAAGAPSVFLFPPKPKDTLMISRTPEVTCVVVDVSHEDPEVKFNWYVDGVEVHNAKTKPREEQYNSTYRVVSVLTVLHQDWLNGKEYKCKVSNKALPAPIEKTISKAKGQPREPQVCTLPPSRDELTKNQVSLSCAVKGFYPSDIAVEWESNGQPENNYKTTPPVLDSDGSFFLVSKLTVDKSRWQQGNVFSCSVMHEALHNRFTQKSLSLSPG
light: SYVLTQPPSVSVAPGQTARITCGGDNIGSKSVHWYQQKPGQAPVPVVYDDSDRPSGIPERFSGSNSGNTATLTISRVEAGDEADYYCQVWDSSSDHVVFGGGTKLTVLGQPKAAPSVTLFPPSSEELQANKATLVCLISDFYPGAVTVAWKADSSPVKAGVETTTPSKQSNNKYAASSYLSLTPEQWKSHRSYSCQVTHEGSTVEKTVAPTECS
**Q.** Which EC50 does the source give for B10 here?
**A.** Its EC50 is over 0.1 µM.

**Q.** What about the “Max Absorbance” value of the same binder?
**A.** Its value is 0.42.

B11: DGL574 (bispecific antibody, V domains shown)
V domain 1: QVQLVESGGGLVQAGGSLRLSCAASRSISSFNEMAWYRQAPGEQRELVATIVSTVGFTNYADSVKGRFTISRDNAKNTVYLQMNSLKAEDTAVYYCNARRISTDYWGQGTQVTVEP
V domain 2: QVQLVESGGGLVQAGGSLRLSCAASGRTFSRYRMGWFRQAPGKEREFVAAITKSGATTYDADSVKGRFTISRDNAKNTLYLQMNSLKPEDTAVYYCAASYHSNWWPKNADEYAYWGQGTQVTVEP
**Q.** What does the source list for B11?
**A.** EC50: > 0.1 µM; Max Absorbance: 0.41
